Patent US5998142, “Systematic evolution of ligands by exponential enrichment: chemi-SELEX” (NeXstar Pharmaceuticals, Inc.)
Where a chain is given by its changes, count along the chain named.

Assays:
[1] = target: bradykinin, N-bromoacetylated (BrBK) (UniProt P01042 P01042:381-389); experiment: kobs covalent reaction, APM gel, 0 C, 5 mM MgCl2; settings: protein: synthetic; tags: synthetic peptide, N-terminal bromoacetyl
Experimental: Reverse transcription and polymerase chain reaction were carried out as reported by Schneider et al., (FASEB, 7, 201 (1993)). […] Reactions to determine $kobs$ values were carried out at 0° C. in reaction buffer (50 mM HEPES, pH 7.0, 5 mM MgCl_2, 150 mM NaCl) at 2 µM GMPS-RNA and 130 µM BrBK, with monitoring at 0, 1, 3, 10, 30, and 90 minutes. GMPS-RNA was denatured at 70° C. for 3 minutes and allowed to slow cool at room temperature prior to dilution to final reaction buffer conditions, transfer to ice, and addition of BrBK. Reactions were quenched on ice with 235 mM sodium thiosulfate and run on a denaturing 7 M urea 8% polyacrylamide APM gel. $kobs$ values were determined as the negative slope of the linear range of data points from plots relating the concentration of unreacted GMPS- RNA vs. time. Round 10 and round 12 pools were used for cloning and sequencing.

[2] = target: Rev (HIV-1, UniProt P04618 P04618:1-116); experiment: EMSA; covalent complex without UV, resistant to 7M urea PAGE, in presence of human nuclear extract, on ice
Experimental: Trunc24 (SEQ ID NO:226) photo-independent crosslinking with HIV-1 Rev in the presence of human nuclear extracts was determined as follows: Trunc24 RNA, nuclear extracts, and Rev protein were combined and incubated on ice for 10 min. Samples were mixed 1:1 with 8M urea loading buffer and placed on a 7M urea, 8% polyacrylamide gel for analysis.

[3] = target: des-Arg9-bradykinin (UniProt P01042 P01042:381-388, des-Arg9); experiment: competition; inhibition of reaction of 12.1 with BrBK; +/-0.5; settings: tags: peptide analog
[4] = target: bradykinin (BK) (UniProt P01042 P01042:381-389); experiment: competition; inhibition of reaction of 12.1 with BrBK; +/-60; settings: tags: native peptide
Chain of bradykinin (BK) (P01042 whole entry, looked up, one chain of several): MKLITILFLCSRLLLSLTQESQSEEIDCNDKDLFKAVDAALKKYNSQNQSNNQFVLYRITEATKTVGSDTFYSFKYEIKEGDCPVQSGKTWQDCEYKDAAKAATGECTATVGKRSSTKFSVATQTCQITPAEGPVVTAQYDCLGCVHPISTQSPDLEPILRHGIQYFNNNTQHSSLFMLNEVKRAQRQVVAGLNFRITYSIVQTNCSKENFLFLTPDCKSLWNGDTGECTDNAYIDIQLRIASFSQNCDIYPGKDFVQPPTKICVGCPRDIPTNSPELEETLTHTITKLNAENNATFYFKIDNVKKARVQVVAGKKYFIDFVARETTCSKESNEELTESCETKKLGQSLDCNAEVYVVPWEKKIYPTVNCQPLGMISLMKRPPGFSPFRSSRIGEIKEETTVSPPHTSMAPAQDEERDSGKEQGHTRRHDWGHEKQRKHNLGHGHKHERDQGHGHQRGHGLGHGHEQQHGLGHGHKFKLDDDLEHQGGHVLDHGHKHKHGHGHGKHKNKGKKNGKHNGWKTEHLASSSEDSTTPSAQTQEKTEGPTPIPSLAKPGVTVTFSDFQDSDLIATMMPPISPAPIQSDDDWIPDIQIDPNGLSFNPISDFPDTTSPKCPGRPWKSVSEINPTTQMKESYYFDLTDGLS

Chain of bradykinin, N-bromoacetylated (BrBK) (P01042 whole entry, looked up, one chain of several): as above
Chain of des-Arg9-bradykinin (P01042 whole entry, looked up, change not shown, one chain of several): as the sequence (P01042 whole entry, looked up, one chain of several) above
Chain of Rev (P04618 whole entry, one chain of several): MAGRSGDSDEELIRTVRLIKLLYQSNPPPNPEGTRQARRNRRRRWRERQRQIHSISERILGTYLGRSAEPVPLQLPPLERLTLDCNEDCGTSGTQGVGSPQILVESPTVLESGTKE

B1: 12.14 (ssRNA)
RNA: GGGAGCUCAGAAUAAACGCUCAAACGUCAUUCCGAGUCGGGUUCGUUCCCCGCUUCGACAUGAGGCCCGGAUCCGGC
modifications: 5'-GMPS
activity [1]: 0.0017 s⁻¹

GGGGAUUAACAGGCACACCUGUUAACCCU (ssRNA, 5-iodouracil at all U) [Trunc24]
binding result [2]: binds

B2: 12.6 (ssRNA)
RNA: GGGAGCUCAGAAUAAACGCUCAAGCGGUAACAUGCUGGAUCUCAGGAAACCGCUUCGACAUGAGGCCCGGAUCCGGC
modifications: 5'-GMPS
activity [1]: 0.0022 s⁻¹

B3: 12.45 (ssRNA)
RNA: B2 RNA with C53U
modifications: 5'-GMPS
activity [1]: 0.0051 s⁻¹

B4: 12.47 (ssRNA)
RNA: GGGAGCUCAGAAUAAACGCUCAAUGUGUGAGUGGAUCCGUUCCCCGCCUGGUGUUCGACAUGAGGCCCGGAUCCGGC
modifications: 5'-GMPS
activity [1]: 0.00149 s⁻¹

B5: 10.28 (ssRNA)
RNA: GGGAGCUCAGAAUAAACGCUCAACGUUUAGGACUCCCCCGUUCGUCGAGCGAAUUCGACAUGAGGCCCGGAUCCGGC
modifications: 5'-GMPS
activity [1]: 0.0018 s⁻¹

B6: 12.4 (ssRNA)
RNA: GGGAGCUCAGAAUAAACGCUCAACGAAUCAAUGCGCGGAUCUCAGGAUAUUCGUUCGACAUGAGGCCCGGAUCCGGC
modifications: 5'-GMPS
activity [1]: 0.0017 s⁻¹

B7: 12.22 (ssRNA)
RNA: GGGAGCUCAGAAUAAACGCUCAAUGCCACUUUUGUUCGGAUCUUAGGAAGGCAUUCGACAUGAGGCCCGGAUCCGGC
modifications: 5'-GMPS
activity [1]: 0.0012 s⁻¹

B8: 12.9 (ssRNA)
RNA: GGGAGCUCAGAAUAAACGCUCAAGUGGAGCUUCGUGACUUGGUCGGAGCCGUGUUCGACAUGAGGCCCGGAUCCGGC
modifications: 5'-GMPS
activity [1]: 0.00128 s⁻¹

B9: 12.3 (ssRNA)
RNA: GGGAGCUCAGAAUAAACGCUCAACAUCACAACUUGUUGUCCUGGUCGAUGUCCUUCGACAUGAGGCCCGGAUCCGGC
modifications: 5'-GMPS
activity [1]: 0.00075 s⁻¹

B10: 12.24 (ssRNA)
RNA: GGGAGCUCAGAAUAAACGCUCAACGUCAGCGGAUCUCCAUUGCGUUAUACGGGUUCGACAUGAGGCCCGGAUCCGGC
modifications: 5'-GMPS
activity [1]: 0.00144 s⁻¹

B11: 12.1 (ssRNA)
RNA: GGGAGCUCAGAAUAAACGCUCAAAGCUGUUGGCAGCGCUGGUGAAGGGAUAGGCUUCGACAUGAGGCCCGGAUCCGGC
modifications: 5'-GMPS
Ki [3]: 2600 µM | Ki [4]: 140 µM

B12: 12.46 (ssRNA)
RNA: GGGAGCUCAGAAUAAACGCUCAAUGGACACAACUCCAUUCAUCCCGGGACCGCUGUUCGACAUGAGGCCCGGAUCCGGC
modifications: 5'-GMPS
activity [1]: 0.00067 s⁻¹
